Literature values as cited in patent US8450118B2, “Method for detecting binding interactions between membrane proteins and analytes in a homogenous assay” (Molecular Sensing, Inc., priority 2009, dated 2013).

Target: T1, mouse B1 receptor (Mus musculus, UniProt Q61125)
T1 sequence (Q61125 1-334): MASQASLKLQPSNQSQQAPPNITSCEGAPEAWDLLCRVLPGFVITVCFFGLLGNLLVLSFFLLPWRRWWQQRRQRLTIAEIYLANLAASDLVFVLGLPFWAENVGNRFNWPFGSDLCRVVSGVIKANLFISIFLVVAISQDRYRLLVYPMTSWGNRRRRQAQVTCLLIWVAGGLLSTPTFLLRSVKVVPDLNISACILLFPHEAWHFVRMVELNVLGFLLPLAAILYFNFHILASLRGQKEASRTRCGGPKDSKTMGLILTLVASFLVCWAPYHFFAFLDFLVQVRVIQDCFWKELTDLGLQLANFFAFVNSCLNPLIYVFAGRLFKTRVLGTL

For “BK(1-8): peptide generated by removal of the C-terminal arginine of bradykinin by carboxypeptidases; selective ligand at the B1 receptor (RPPGFSPF; Bradykinin; UniProt P01042 381-388, looked up, fragment)”, the “fold higher affinity for BK(1-8) compared to Lys-BK(1-8)” value is given as 2-3 fold.
